For 1 molecule, Kd results are on record in patent US20220235140A1 (HEDGEHOG, published 2022).

One may read the Kd as the concentration at which binding is half-saturated. A lower Kd goes with tighter binding.

The assay deals with T1, human endothelin receptor type A (human, UniProt P25101 21-427, limits assumed).
T1 construct: Immobilized on plates coated with human Galpha-i3 such that its extracellular regions were selectively exposed; also called ETA
T1 sequence (looked up): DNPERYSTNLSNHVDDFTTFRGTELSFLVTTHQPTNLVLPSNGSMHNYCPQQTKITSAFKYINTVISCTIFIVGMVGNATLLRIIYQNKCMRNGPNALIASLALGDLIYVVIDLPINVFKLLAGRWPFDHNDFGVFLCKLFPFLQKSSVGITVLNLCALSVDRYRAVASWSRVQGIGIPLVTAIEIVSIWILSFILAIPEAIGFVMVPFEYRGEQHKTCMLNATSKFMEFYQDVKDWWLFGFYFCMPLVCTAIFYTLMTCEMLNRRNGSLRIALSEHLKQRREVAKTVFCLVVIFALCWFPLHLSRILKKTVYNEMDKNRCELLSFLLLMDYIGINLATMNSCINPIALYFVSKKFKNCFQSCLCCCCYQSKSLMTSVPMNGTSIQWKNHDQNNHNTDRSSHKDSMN
The assay can be described thus: ELISA, ETA immobilized via human Galpha-i3, antibody titrated.

B1: AG8 (antibody, V domains shown)
VH: EVQLVESGAEVRKPGASVKVSCKASGYTFTSSDINWIRQATGQGLEWMGYMNPKNGNTDYAQKFQGRISMTRDSSISTAYMELSSLRSEDTAVYYCAKDRYGSGTYGFGMDVWGPGTLVT
VL: DIVMTQSPSAMSASVGDRVSITCRASQGINNYLAWFQQKPGKVPKRLMDVGSILQSGIPSRFRGRGSGTQFTLTISSLQAEDSGTYFCLQHNTYPLTFGPGTKVEIKR
The molecule B1 yielded a Kd of 26.1 nM.
